Values quoted from earlier work in publication PMC8608346.

Target: FPR1 (Homo sapiens) (UniProt P21462)
Sequence of UniProt P21462 (P21462 whole entry): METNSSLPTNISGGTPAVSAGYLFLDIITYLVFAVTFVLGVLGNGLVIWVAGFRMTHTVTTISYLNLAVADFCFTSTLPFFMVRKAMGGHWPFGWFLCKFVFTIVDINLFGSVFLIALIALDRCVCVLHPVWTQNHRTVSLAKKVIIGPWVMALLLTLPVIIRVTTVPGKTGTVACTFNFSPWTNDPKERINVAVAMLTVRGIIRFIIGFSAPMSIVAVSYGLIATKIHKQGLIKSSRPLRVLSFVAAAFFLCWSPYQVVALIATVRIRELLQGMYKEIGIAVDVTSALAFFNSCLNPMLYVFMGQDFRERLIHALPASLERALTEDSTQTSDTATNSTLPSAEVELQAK

Kd: 0.447 nM
Substance: FAM19A4 (from UniProt Q96LR4)
